The conditions of this data set: Bos taurus; pH 7; 25 °C; GdnHCl; CD; Sodium phosphate 20 mM; reversible: yes; whole UniProt chain shown.

Values joined by “and” are separate entries in the source; they are usually repeats but may differ in a detail not shown here. Identical values can stand only once.

B1: Gamma-crystallin B wild type, P02526 (protein)
chain: MGKITFYEDRGFQGHCYECSSDCPNLQPYFSRCNSIRVDSGCWMLYERPNYQGHQYFLRRGDYPDYQQWMGFNDSIRSCRLIPQHTGTFRMRIYERDDFRGQMSEITDDCPSLQDRFHLTEVHSLNVLEGSWVLYEMPSYRGRQYLLRPGEYRRYLDWGAMNAKVGSLRRVMDFY
As to B1, the denaturant m value is 1.3 kcal/mol/M; the unfolding free energy was 5.2 kcal/mol and 6.5 kcal/mol.
